In this assay the target is human IL-12 receptor (IL-12R) (human) (UniProt P42701). The experiment in a line: cell-based or functional assay.

Consider mIL-12-Fc-wt (Fc fusion), for which the Mean Fold Reduction (potency vs IL-12 WT by EC50; HEK-Blue IL-12 STAT4/SEAP reporter) was 1 fold.

The values are drawn from patent publication US20250051434A1.
